Source: patent US20250003951A1 (OXFORD UNIVERSITY INNOVATION, published 2025)

Key:
Test in all cases: cell-based or functional assay
[1] = biological target: T1, OX628-81 (human)
T1 peptide: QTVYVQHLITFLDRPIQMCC

[2] = biological target: T2, OX628-80 (human)
T2 peptide: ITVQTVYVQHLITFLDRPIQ

[3] = biological target: T3, OX993-414 (human)
T3 peptide: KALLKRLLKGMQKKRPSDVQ

[4] = biological target: T4, OX993-413 (human)
T4 peptide: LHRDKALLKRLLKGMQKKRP

[5] = biological target: T5, OX289-052 (human)
T5 peptide: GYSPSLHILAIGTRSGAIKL

[6] = biological target: T6, OX1149-290 (human)
T6 peptide: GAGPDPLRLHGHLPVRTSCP

B1: OX628 Peptides 80/81 clone 1 TCR (TCR, V domains shown)
V domain 1: GQQLNQSPQSMFIQEGEDVSMNCTSSSIFNTWLWYKQEPGEGPVLLIALYKAGELTSNGRLTAQFGITRKDSFLNISASIPSDVGIYFCAGHQIQGAQKLVFGQGTRLTINP
V domain 2: NAGVTQTPKFRILKIGQSMTLQCTQDMNHNYMYWYRQDPGMGLKLIYYSVGAGITDKGEVPNGYNVSRSTTEDFPLRLELAAPSQTSVYFCASSYSGMNTEAFFGQGTRLTVVE
Clone size (percent repertoire), IFNγ+ sorted T cells after peptide stimulation [1]: 55.1 % of repertoire | Clone size (percent repertoire), IFNγ+ sorted T cells after peptide stimulation [2]: 55.1 % of repertoire

B2: OX993 Peptides 413/414 clone 3 TCR (TCR, V domains shown)
V domain 1: RGEDVEQSLFLSVREGDSSVINCTYTDSSSTYLYWYKQEPGAGLQLLTYIFSNMDMKQDQRLTVLLNKKDKHLSLRIADTQTGDSAIYFCAEKKEGFKTIFGAGTRLFVKA
V domain 2: NAGVTQTPKFQVLKTGQSMTLQCAQDMNHEYMSWYRQDPGMGLRLIHYSVGAGITDQGEVPNGYNVSRSTTEDFPLRLLSAAPSQTSVYFCASQETGVGGELFFGEGSRLTVLE
Clone size (percent repertoire), IFNγ+ sorted T cells after peptide stimulation [3]: 11.6 % of repertoire | Clone size (percent repertoire), IFNγ+ sorted T cells after peptide stimulation [4]: 11.6 % of repertoire

B3: OX628 Peptides 80/81 clone 2 TCR (TCR, V domains shown)
V domain 1: GQQLNQSPQSMFIQEGEDVSMNCTSSSIFNTWLWYKQDPGEGPVLLIALYKAGELTSNGRLTAQFGITRKDSFLNISASIPSDVGIYFCAGANNNARLMFGDGTQLVVKP
V domain 2: SAVISQKPSRDICQRGTSLTIQCQVDSQVTMMFWYRQQPGQSLTLIATANQGSEATYESGFVIDKFPISRPNLTFSTLTVSNMSPEDSSIYLCSVTPGGGVNTEAFFGQGTRLTVVE
Clone size (percent repertoire), IFNγ+ sorted T cells after peptide stimulation [1]: 13.5 % of repertoire | Clone size (percent repertoire), IFNγ+ sorted T cells after peptide stimulation [2]: 13.5 % of repertoire

B4: OX289 Peptide 52 clone 1 TCR (TCR)
TCR alpha: AQSVTQPDIHITVSEGASLELRCNYSYGATPYLFWYVQSPGQGLQLLLKYFSGDTLVQGIKGFEAEFKRSQSSFNLRKPSVHWSDAAEYFCAVGAYSSASKIIFGSGTRLSIRPNIQNPDPAVYQLRD
TCR beta 1: EPEVTQTPSHQVTQMGQEVILRCVPISNHLYFYWYRQILGQKVEFLVSFYNNEISEKSEIFDDQFSVERPDGSNFTLKIRSTKLEDSAMYFCASRDRGSGANVLTFGAGSRLTVLEDLKNVFPPEVAVFEPS
TCR beta 2: AVVSQHPSWVICKSGTSVKIECRSLDFQATTMFWYRQFPKQSLMLMATSNEGSKATYEQGVEKDKFLINHASLTLSTLTVTSAHPEDSSFYICSGGWGPNTGELFFGEGSRLTVLEDLKNVFPPEVAVFEPS
Clone size (percent repertoire), IFNγ+ sorted T cells after peptide stimulation [5]: 27.3 % of repertoire

B5: OX1149 Peptide 290 clone 1 TCR (TCR, V domains shown)
V domain 1: GENVEQHPSTLSVQEGDSAVIKCTYSDSASNYFPWYKQELGKRPQLIIDIRSNVGEKKDQRIAVTLNKTAKHFSLHITETQPEDSAVYFCAASIATDKLIFGTGTRLQVFP
V domain 2: KAGVTQTPRYLIKTRGQQVTLSCSPISGHRSVSWYQQTPGQGLQFLFEYFSETQRNKGNFPGRFSGRQFSNSRSEMNVSTLELGDSALYLCASSWRGQGEGYTFGSGTRLTVVE
Clone size (percent repertoire), IFNγ+ sorted T cells after peptide stimulation [6]: 20.4 % of repertoire

B6: OX1149 Peptide 290 clone 3 TCR (TCR)
TCR alpha 1: GDAKTTQPNSMESNEEEPVHLPCNHSTISGTDYIHWYRQLPSQGPEYVIHGLTSNVNNRMASLAIAEDRKSSTLILHRATLRDAAVYYCILVEGNEKLTFGTGTRLTIIPNIQNPDPAVYQLRD
TCR alpha 2: SQELEQSPQSLIVQEGKNLTINCTSSKTLYGLYWYKQKYGEGLIFLMMLQKGGEEKSHEKITAKLDEKKQQSSLHITASQPSHAGIYLCGADVQGSQGNLIFGKGTKLSVKPNIQNPDPAVYQLRD
TCR beta: EPEVTQTPSHQVTQMGQEVILRCVPISNHLYFYWYRQILGQKVEFLVSFYNNEISEKSEIFDDQFSVERPDGSNFTLKIRSTKLEDSAMYFCASRLGGRTTEAFFGQGTRLTVVEDLNKVFPPEVAVFEPS
Clone size (percent repertoire), IFNγ+ sorted T cells after peptide stimulation [6]: 4.8 % of repertoire

B7: OX628 Peptides 80/81 clone 3 TCR (TCR, V domains shown)
V domain 1: QKEVEQNSGPLSVPEGAIASLNCTYSDRGSQSFFWYRQYSGKSPELIMSIYSNGDKEDGRFTAQLNKASQYVSLLIRDSQPSDSATYLCAVSAGGTSYGKLTFGQGTILTVHP
V domain 2: DTAVSQTPKYLVTQMGNDKSIKCEQNLGHDTMYWYKQDSKKFLKIMFSYNNKELIINETVPNRFSPKSPDKAHLNLHINSLELGDSAVYFCASSQVLRGEQYFGPGTRLTVTE
Clone size (percent repertoire), IFNγ+ sorted T cells after peptide stimulation [1]: 4.2 % of repertoire | Clone size (percent repertoire), IFNγ+ sorted T cells after peptide stimulation [2]: 4.2 % of repertoire

B8: OX1149 Peptide 290 clone 2 TCR (TCR, V domains shown)
V domain 1: RGNGKNQVEQSPQSLIILEGKNCTLQCNYTVSPFSNLRWYKQDTGRGPVSLTIMTFSENTKSNGRYTATLDADTKQSSLHITASQLSDSASYICVVTGGANNLFFGTGTRLTVIP
V domain 2: KAGVTQTPRYLIKTRGQQVTLSCSPISGHRSVSWYQQTPGQGLQFLFEYFSETQRNKGNFPGRFSGRQFSNSRSEMNVSTLELGDSALYLCASSEAGEWTQYFGPGTRLTVLE
Clone size (percent repertoire), IFNγ+ sorted T cells after peptide stimulation [6]: 7 % of repertoire

B9: OX289 Peptide 52 clone 2 TCR (TCR, V domains shown)
V domain 1: EDKVVQSPLSLVVHEGDTVTLNCSYEVTNFRSLLWYKQEKKAPTFLFMLTSSGIEKKSGRLSSILDKKELSSILNITATQTGDSAIYLCAVGHFSSRSSGSARQLTFGSGTQLTVLP
V domain 2: DAGVIQSPRHEVTEMGQEVTLRCKPISGHNSLFWYRQTMMRGLELLIYFNNNVPIDDSGMPEDRFSAKMPNASFSTLKIQPSEPRDSAVYFCASSLKVGVDSSYNEQFFGPGTRLTVLE
Clone size (percent repertoire), IFNγ+ sorted T cells after peptide stimulation [5]: 10.7 % of repertoire

B10: OX993 Peptides 413/414 clone 2 TCR (TCR)
TCR alpha: AQSVTQLGSHVSVSEGALVLLRCNYSSSVPPYLFWYVQYPNQGLQLLLKYTTGATLVKGINGFEAEFKKSETSFHLTKPSAHMSDAAEYFCAVSPPAQKLVFGTGTRLLVSPNIQNPDPAVYQLRD
TCR beta 1: NAGVTQTPKFQVLKTGQSMTLQCAQDMNHEYMSWYRQDPGMGLRLIHYSVGAGITDQGEVPNGYNVSRSTTEDFPLRLLSAAPSQTSVYFCASQETGVGGELFFGEGSRLTVLEDLKNVFPPEVAVFEPS
TCR beta 2: NAGVTQTPKFQVLKTGQSMTLQCAQDMNHEYMSWYRQDPGMGLRLIHYSVGAGITDQGEVPNGYNVSRSTTEDFPLRLLSAAPSQTSVYFCASSTTAVVSPLHFGNGTRLTVTEDLNKVFPPEVAVFEPS
Clone size (percent repertoire), IFNγ+ sorted T cells after peptide stimulation [3]: 13.7 % of repertoire | Clone size (percent repertoire), IFNγ+ sorted T cells after peptide stimulation [4]: 13.7 % of repertoire

B11: OX993 Peptides 413/414 clone 1 TCR (TCR)
TCR alpha 1: GESVGLHLPTLSVQEGDNSIINCAYSNSASDYFIWYKQESGKGPQFIIDIRSNMDKRQGQRVTVLLNKTVKHLSLQIAATQPGDSAVYFCAEIGSGAGSYQLTFGKGTKLSVIPNIQNPDPAVYQLRD
TCR alpha 2: GESVGLHLPTLSVQEGDNSIINCAYSNSASDYFIWYKQESGKGPQFIIDIRSNMDKRQGQRVTVLLNKTVKHLSLQIAATQPGDSAVYFCAENQGGSSYKLIFGSGTRLLVRPDIQNPDPAVYQLRD
TCR beta: DTGVSQNPRHKITKRGQNVTFRCDPISEHNRLYWYRQTLGQGPEFLTYFQNEAQLEKSRLLSDRFSAERPKGSFSTLEIQRTEQGDSAMYLCASSSQSGVDTEAFFGQGTRLTVVEDLNKVFPPEVAVFEPS
Clone size (percent repertoire), IFNγ+ sorted T cells after peptide stimulation [3]: 26.7 % of repertoire | Clone size (percent repertoire), IFNγ+ sorted T cells after peptide stimulation [4]: 26.7 % of repertoire
